# B1: recombinant Neisseria gonorrhoeae sedoheptulose-7-phosphate isomerase GmhA, untagged (rGmhAGC) (enzyme, Neisseria gonorrhoeae FA1090, UniProt Q5F5E3 1-197, looked up)
# chain: MTTLQERVAAHFAESIRAKQEAEKILVEPTVQAAELMLQCLMNDGKILACGNGGSAADAQHFAAEMTGRFEKERMELAAVALTTDTSALTAIGNDYGFDHVFSKQVRALGRAGDVLVGISTSGNSANVIEAVKAAHERDMHVIALTGRDGGKIAAMLKDTDVLLNVPHPRTARIQENHILLIHAMCDCIDSVLLEGM
# notes: GmhA (sedoheptulose-7-phosphate isomerase) of N. gonorrhoeae FA1090, encoded by ngo1986; 197 amino acids, predicted mass 21.093 kDa; ngo1986 amplified without its stop codon and cloned into NcoI/HindIII of pRSF-NT; His tag removed by TEV protease; also called NGO1986; 6 × His-tag-free rGmhAGC; source: E. coli BL21(DE3), purified (IMAC, TEV cleavage, Ni-NTA); not shown: His6, N-terminal, cleaved
# Molecular target: the molecule itself
# Test: SEC; HiLoad 16/600 Superdex 75 pg, 20 mmol/L Tris-HCl pH 8.0, 500 mmol/L NaCl, 1 ml/min; size by Gel Filtration Standard (Bio-Rad)
protein,measurement,value
B1,stoichiometry N,4

# — PMC5387315, “Functional and structural studies on the Neisseria gonorrhoeae GmhA, the first enzyme in the glycero‐manno‐heptose biosynthesis pathways, demonstrate a critical role in lipooligosaccharide synthesis and gonococcal viability” (MicrobiologyOpen, 2017)
